This test deals with His6-tagged UBR5 recombinant protein (UniProt O95071 1-2799). Description: pull-down.
His6-tagged UBR5 recombinant protein, sequence (O95071 whole entry): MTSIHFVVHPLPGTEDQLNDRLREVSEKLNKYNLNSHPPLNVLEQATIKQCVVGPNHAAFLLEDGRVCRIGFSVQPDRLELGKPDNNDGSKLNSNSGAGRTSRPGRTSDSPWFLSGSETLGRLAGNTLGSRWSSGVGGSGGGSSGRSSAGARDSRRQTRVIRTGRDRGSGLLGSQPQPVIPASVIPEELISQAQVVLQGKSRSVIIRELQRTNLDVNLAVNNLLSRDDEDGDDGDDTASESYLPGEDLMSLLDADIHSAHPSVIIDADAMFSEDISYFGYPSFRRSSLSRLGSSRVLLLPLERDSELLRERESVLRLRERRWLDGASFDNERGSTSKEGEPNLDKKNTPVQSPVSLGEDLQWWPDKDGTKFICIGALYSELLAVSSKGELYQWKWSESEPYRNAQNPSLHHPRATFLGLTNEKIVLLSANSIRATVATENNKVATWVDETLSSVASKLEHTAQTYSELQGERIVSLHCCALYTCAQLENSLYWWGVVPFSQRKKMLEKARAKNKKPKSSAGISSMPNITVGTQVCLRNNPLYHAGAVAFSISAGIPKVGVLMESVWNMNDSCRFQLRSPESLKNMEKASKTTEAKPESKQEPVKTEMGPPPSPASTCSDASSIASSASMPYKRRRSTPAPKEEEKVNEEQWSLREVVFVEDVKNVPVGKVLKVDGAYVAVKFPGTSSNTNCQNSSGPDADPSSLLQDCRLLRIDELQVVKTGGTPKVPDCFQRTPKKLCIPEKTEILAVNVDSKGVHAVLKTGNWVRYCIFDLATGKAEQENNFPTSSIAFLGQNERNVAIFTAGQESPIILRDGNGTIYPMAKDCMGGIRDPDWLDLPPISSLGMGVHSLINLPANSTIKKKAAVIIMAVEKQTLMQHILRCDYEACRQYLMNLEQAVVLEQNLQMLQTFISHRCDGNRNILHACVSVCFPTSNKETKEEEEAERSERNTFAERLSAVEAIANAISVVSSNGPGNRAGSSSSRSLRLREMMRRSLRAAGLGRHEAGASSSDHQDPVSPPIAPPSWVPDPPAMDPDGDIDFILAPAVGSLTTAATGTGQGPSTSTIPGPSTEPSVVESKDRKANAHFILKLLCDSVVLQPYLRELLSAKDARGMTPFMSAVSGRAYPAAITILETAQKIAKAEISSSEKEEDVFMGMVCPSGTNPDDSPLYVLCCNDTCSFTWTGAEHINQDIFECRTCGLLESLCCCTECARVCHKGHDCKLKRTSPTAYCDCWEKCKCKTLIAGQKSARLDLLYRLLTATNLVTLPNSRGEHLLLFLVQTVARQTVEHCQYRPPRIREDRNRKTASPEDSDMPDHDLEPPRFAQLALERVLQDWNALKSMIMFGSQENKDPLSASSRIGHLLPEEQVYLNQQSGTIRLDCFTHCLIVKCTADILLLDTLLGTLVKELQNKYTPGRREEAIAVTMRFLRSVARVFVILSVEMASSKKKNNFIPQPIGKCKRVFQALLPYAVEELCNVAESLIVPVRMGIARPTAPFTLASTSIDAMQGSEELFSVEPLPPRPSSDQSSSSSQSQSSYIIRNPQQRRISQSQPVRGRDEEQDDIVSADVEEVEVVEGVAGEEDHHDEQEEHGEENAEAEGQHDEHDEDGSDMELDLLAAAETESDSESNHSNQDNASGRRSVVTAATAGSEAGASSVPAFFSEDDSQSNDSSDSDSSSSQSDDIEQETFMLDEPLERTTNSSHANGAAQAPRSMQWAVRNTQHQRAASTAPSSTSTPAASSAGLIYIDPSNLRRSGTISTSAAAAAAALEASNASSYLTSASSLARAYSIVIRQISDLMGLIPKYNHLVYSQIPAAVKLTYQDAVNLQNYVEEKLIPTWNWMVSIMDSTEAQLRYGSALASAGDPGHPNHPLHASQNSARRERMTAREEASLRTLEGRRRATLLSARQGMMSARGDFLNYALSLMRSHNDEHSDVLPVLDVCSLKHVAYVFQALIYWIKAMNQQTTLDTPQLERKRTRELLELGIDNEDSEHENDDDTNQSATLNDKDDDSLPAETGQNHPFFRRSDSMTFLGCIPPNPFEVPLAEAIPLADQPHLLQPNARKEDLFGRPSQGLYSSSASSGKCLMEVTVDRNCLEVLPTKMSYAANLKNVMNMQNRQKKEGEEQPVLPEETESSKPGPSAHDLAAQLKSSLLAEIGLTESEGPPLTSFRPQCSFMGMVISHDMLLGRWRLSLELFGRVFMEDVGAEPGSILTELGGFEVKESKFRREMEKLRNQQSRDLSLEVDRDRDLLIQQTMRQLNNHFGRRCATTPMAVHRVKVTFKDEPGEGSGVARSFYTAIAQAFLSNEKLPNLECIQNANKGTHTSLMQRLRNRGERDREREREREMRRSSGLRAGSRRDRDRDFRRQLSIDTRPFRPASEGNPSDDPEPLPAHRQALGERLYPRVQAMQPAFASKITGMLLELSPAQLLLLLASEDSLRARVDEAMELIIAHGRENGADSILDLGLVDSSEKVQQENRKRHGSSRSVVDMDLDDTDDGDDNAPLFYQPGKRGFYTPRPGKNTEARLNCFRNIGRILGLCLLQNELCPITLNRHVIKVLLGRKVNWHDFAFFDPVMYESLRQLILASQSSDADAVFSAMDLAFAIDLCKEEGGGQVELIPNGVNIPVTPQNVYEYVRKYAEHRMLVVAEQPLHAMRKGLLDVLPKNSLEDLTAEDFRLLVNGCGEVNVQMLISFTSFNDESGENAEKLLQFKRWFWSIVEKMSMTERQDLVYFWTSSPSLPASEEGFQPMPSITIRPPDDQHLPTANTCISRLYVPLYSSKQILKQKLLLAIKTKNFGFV

B1: GST-tagged MOAP-1 recombinant protein (natural protein, UniProt Q96BY2 1-351, looked up)
chain: MTLRLLEDWCRGMDMNPRKALLIAGISQSCSVAEIEEALQAGLAPLGEYRLLGRMFRRDENRKVALVGLTAETSHALVPKEIPGKGGIWRVIFKPPDPDNTFLSRLNEFLAGEGMTVGELSRALGHENGSLDPEQGMIPEMWAPMLAQALEALQPALQCLKYKKLRVFSGRESPEPGEEEFGRWMFHTTQMIKAWQVPDVEKRRRLLESLRGPALDVIRVLKINNPLITVDECLQALEEVFGVTDNPRELQVKYLTTYQKDEEKLSAYVLRLEPLLQKLVQRGAIERDAVNQARLDQVIAGAVHKTIRRELNLPEDGPAPGFLQLLVLIKDYEAAEEEEALLQAILEGNFT
For B1, the binding result is “binds”.

The values are drawn from PMC5447866 (Oncogene, 2016).
